B1: recombinant human RAD51 [human] / His6-Thioredoxin-RAD54-Flag (recombinant human RAD54, wild type) [human] (parent complex)
chain 1: MAMQMQLEANADTSVEEESFGPQPISRLEQCGINANDVKKLEEAGFHTVEAVAYAPKKELINIKGISEAKADKILAEAAKLVPMGFTTATEFHQRRSEIIQITTGSKELDKLLQGGIETGSITEMFGEFRTGKTQICHTLAVTCQLPIDRGGGEGKAMYIDTEGTFRPERLLAVAERYGLSGSDVLDNVAYARAFNTDHQTQLLYQASAMMVESRYALLIVDSATALYRTDYSGRGELSARQMHLARFLRMLLRLADEFGVAVVITNQVVAQVDGAAMFAADPKKPIGGNIIAHASTTRLYLRKGRGETRICKIYDSPCLPEAEAMFAINADGVGDAKD
chain 2: MRRSLAPSQLAKRKPEGRSCDDEDWQPGLVTPRKRKSSSETQIQECFLSPFRKPLSQLTNQPPCLDSSQHEAFIRSILSKPFKVPIPNYQGPLGSRALGLKRAGVRRALHDPLEKDALVLYEPPPLSAHDQLKLDKEKLPVHVVVDPILSKVLRPHQREGVKFLWECVTSRRIPGSHGCIMADEMGLGKTLQCITLMWTLLRQSPECKPEIDKAVVVSPSSLVKNWYNEVGKWLGGRIQPLAIDGGSKDEIDQKLEGFMNQRGARVSSPILIISYETFRLHVGVLQKGSVGLVICDEGHRLKNSENQTYQALDSLNTSRRVLISGTPIQNDLLEYFSLVHFVNSGILGTAHEFKKHFELPILKGRDAAASEADRQLGEERLRELTSIVNRCLIRRTSDILSKYLPVKIEQVVCCRLTPLQTELYKRFLRQAKPAEELLEGKMSVSSLSSITSLKKLCNHPALIYDKCVEEEDGFVGALDLFPPGYSSKALEPQLSGKMLVLDYILAVTRSRSSDKVVLVSNYTQTLDLFEKLCRARRYLYVRLDGTMSIKKRAKVVERFNSPSSPDFVFMLSSKAGGCGLNLIGANRLVMFDPDWNPANDEQAMARVWRDGQKKTCYIYRLLSAGTIEEKIFQRQSHKKALSSCVVDEEQDVERHFSLGELKELFILDEASLSDTHDRLHCRRCVNSRQIRPPPDGSDCTSDLAGWNHCTDKWGLRDEVLQAAWDAASTAITFVFHQRSHEEQRGLR

In one experiment the parent is B1. The experiment in a line: pull-down (silver-stained gel, quantified); read off a plot.
For the variant chain 2 T700D, the ratio to parent was about 1.3.

For chain 2 T41D, the ratio to parent was about 0.25.

With chain 2 T41D, chain 2 T59D, chain 2 T700D, the ratio to parent was about 0.27.

For chain 2 T59D, the ratio to parent is about 0.58.

As to chain 2 T41D, chain 2 T59D, the ratio to parent was about 0.41.

In another experiment the parent is B1. Described as above. The source holds these as a separate data set.
In the case of chain 2 T700D, the ratio to parent was about 1.2.

Values taken from publication PMC10484734, “TLK1-mediated RAD54 phosphorylation spatio-temporally regulates Homologous Recombination Repair” (Nucleic Acids Research, 2023).
